Drawing on paper PMC2950225, this text covers stoichiometry N for one molecule.

The target in the experiment is T1, heat shock factor 1 (human (endogenous in HepG2)), Q00613.
T1 chain: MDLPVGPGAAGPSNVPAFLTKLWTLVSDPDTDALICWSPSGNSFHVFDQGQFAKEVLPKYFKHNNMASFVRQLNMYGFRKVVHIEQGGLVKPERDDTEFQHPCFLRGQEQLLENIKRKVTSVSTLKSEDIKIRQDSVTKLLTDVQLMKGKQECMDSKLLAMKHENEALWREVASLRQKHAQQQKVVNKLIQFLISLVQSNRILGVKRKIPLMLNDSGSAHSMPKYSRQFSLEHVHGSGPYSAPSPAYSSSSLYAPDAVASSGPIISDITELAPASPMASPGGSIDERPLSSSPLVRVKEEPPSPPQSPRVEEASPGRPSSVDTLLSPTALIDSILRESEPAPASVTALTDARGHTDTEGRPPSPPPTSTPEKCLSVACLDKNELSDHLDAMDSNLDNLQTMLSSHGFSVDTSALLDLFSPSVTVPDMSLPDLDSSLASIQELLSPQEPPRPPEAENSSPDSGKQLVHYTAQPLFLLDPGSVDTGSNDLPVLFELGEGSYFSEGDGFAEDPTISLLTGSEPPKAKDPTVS
As to the kind of experiment: cross-linking. Particulars: remark: other sources report otherwise.

B1: heat shock factor 1, Q00613 1-529 (natural protein)
chain: T1 chain
What is called stoichiometry N is the number of molecules, sites or subunits per partner or assembly. B1: the stoichiometry N was determined as 3.
